T1: Flag-tagged Twist-1 WT from starved HEK293 cells (not phosphorylated)
T1 sequence: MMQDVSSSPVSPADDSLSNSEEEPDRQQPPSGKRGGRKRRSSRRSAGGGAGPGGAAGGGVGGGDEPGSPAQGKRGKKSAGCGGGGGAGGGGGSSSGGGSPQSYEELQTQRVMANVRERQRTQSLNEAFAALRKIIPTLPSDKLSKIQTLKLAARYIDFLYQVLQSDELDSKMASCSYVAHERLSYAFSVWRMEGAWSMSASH

T2: GST-Twist-1 (full-length, substrate of the in vitro kinase assay)
T2 chain: T1 sequence

T3: RERQRAQSLNEA-T121A
T3 chain: RERQRAQSLNEA

T4: RERQRTQALNEA-S123A
T4 chain: RERQRTQALNEA

T5: RERQRTQSLNEA-T121/5123
T5 chain: RERQRTQSLNEA

T6: RKRRSARRSAGG-S42A
T6 chain: RKRRSARRSAGG

T7: RKRRSSRRAAGG-S45A
T7 chain: RKRRSSRRAAGG

T8: RKRRSSRRSAGG-S42/S45
T8 chain: RKRRSSRRSAGG

B1: activated recombinant PKBβ (protein)
chain: KVTMNDFDYLKLLGKGTFGKVILVREKATGRYYAMKILRKEVIIAKDEVAHTVTESRVLQNTRHPFLTALKYAFQTHDRLCFVMEYANGGELFFHLSRERVFTEERARFYGAEIVSALEYLHSRDVVYRDIKLENLMLDKDGHIKITDFGLCKEGISDGATMKTFCGTPEYLAPEVLEDNDYGRAVDWWGLGVVMYEMMCGRLPFYNQDHERLFELILMEEIRFPRTLSPEAKSLLAGLLKKDPKQRLGGGPSDAKEVMEHRFFLSINWQDVVQKKLLPPFKPQVTSEVDTRYFDDEFTAQSITITPPDRYDSLGLLELDQRTHFPQFSYSASIRE

Key:
[1] = system: T1, Flag-tagged Twist-1 WT from starved HEK293 cells (not phosphorylated)
[2] = target: T2, GST-Twist-1 (full-length, substrate of …)
RERQRAQSLNEA-T121A = target: T3, RERQRAQSLNEA-T121A
RERQRTQALNEA-S123A = target: T4, RERQRTQALNEA-S123A
RERQRTQSLNEA-T121/5123 = target: T5, RERQRTQSLNEA-T121/5123
RKRRSARRSAGG-S42A = target: T6, RKRRSARRSAGG-S42A
RKRRSSRRAAGG-S45A = target: T7, RKRRSSRRAAGG-S45A
RKRRSSRRSAGG-S42/S45 = target: T8, RKRRSSRRSAGG-S42/S45

| Molecule | Twist-1 S42 phosphorylation after serum stimulation (Western blot; shRNA against PKB) [1] | in vitro kinase assays followed by mass spectrometry (MS) analysis [2] | phosphorylation of synthetic peptide (in vitro kinase assay, 32P-ATP, scintillation counting); no such loss, by implication (RERQRAQSLNEA-T121A) | phosphorylation of synthetic peptide (in vitro kinase assay, 32P-ATP, scintillation counting); almost complete loss (RERQRTQALNEA-S123A) | phosphorylation of synthetic peptide (in vitro kinase assay, 32P-ATP, scintillation counting); parent peptide, phosphorylated by implication (RERQRTQSLNEA-T121/5123) | phosphorylation of synthetic peptide (in vitro kinase assay, 32P-ATP, scintillation counting); almost complete loss (RKRRSARRSAGG-S42A) | phosphorylation of synthetic peptide (in vitro kinase assay, 32P-ATP, scintillation counting); no such loss, by implication (RKRRSSRRAAGG-S45A) | phosphorylation of synthetic peptide (in vitro kinase assay, 32P-ATP, scintillation counting); parent peptide, phosphorylated by implication (RKRRSSRRSAGG-S42/S45) |
| --- | --- | --- | --- | --- | --- | --- | --- | --- |
| endogenous PKB kinase of HEK293 cells | Twist-1 S42 phosphorylation was not induced after serum stimulation of cells with a low PKB content |  |  |  |  |  |  |  |
| B1 |  | confirmed that PKB phosphorylates Twist-1 in vitro on two residues S42 and S123 | Only substitution of serine to alanine at positions 42 and 123 resulted in almost complete loss of phosphorylation of the corresponding peptide by PKB | Only substitution of serine to alanine at positions 42 and 123 resulted in almost complete loss of phosphorylation of the corresponding peptide by PKB | Only substitution of serine to alanine at positions 42 and 123 resulted in almost complete loss of phosphorylation of the corresponding peptide by PKB | Only substitution of serine to alanine at positions 42 and 123 resulted in almost complete loss of phosphorylation of the corresponding peptide by PKB | Only substitution of serine to alanine at positions 42 and 123 resulted in almost complete loss of phosphorylation of the corresponding peptide by PKB | Only substitution of serine to alanine at positions 42 and 123 resulted in almost complete loss of phosphorylation of the corresponding peptide by PKB |

Source: patent US20120213801
